The values below come from PMC10869706, “Chp1 is a dedicated chaperone at the ribosome that safeguards eEF1A biogenesis” (Nature Communications, 2024).

One assay deals with T1, V5-eEF1A F98C (yeast (S. cerevisiae), UniProt P02994 1-458, F98C).
T1 construct: eEF1A (Tef2), yeast, with a change that represents a human EEF1A2 polymorphism; source: expressed in yeast cells, in lysate; not shown: V5, N-terminal, kept
T1 sequence (looked up): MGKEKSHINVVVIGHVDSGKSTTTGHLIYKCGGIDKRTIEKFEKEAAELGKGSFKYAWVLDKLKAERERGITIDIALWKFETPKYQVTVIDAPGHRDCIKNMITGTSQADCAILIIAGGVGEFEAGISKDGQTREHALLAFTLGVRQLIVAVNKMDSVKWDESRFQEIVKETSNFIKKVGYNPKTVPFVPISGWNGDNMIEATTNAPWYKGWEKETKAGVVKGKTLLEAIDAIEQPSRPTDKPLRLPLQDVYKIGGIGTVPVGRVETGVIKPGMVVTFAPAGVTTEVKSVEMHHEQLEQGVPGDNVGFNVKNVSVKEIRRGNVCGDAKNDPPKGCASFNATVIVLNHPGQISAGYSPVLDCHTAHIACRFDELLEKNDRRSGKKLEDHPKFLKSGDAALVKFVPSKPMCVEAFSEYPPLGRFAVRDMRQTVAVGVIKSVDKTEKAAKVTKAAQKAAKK
Briefly: co-IP; co-IP of V5-eEF1A variants with Chp1 from yeast lysate (GFP-Trap/V5-Trap; 20 mM Tris pH 7.4, 150 mM NaCl, 2 mM MgCl2, 2 mM EDTA, 5% glycerol, 0.25% NP-40), 2 h at 4 °C, immunoblot, quantified. The settings on record: partners not purified.

The target in another assay is T2, V5-eEF1A M102V (yeast (S. cerevisiae), UniProt P02994 1-458, M102V).
T2 construct: eEF1A (Tef2), yeast, with a change that represents a human EEF1A2 polymorphism; source: expressed in yeast cells, in lysate; not shown: V5, N-terminal, kept
T2 sequence (looked up): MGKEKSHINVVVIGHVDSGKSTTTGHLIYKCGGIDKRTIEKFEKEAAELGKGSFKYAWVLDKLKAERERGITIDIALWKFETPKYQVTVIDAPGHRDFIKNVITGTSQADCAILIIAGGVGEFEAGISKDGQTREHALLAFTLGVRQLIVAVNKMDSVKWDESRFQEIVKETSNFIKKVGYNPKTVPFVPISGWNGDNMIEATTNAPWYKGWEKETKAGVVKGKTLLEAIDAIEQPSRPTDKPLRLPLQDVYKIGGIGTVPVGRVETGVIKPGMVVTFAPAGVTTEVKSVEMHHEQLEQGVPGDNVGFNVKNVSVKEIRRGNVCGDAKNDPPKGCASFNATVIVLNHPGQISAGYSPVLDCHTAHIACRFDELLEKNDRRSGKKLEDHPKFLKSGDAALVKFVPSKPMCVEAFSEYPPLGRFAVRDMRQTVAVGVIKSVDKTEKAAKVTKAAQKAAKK
Described as above. Particulars: partners not purified.

B1: Chp1 (in yeast cells expressing V5-eEF1A) (natural protein, yeast (S. cerevisiae), UniProt Q08971 1-146, looked up)
chain: MSTFNAETADNLEDIEKQFAVVAVEQAETYWKLLTSVPGSKLRLTKFDDEIYENFMERFPEYKDVERVKKFTEEELKTKEAKERWRKFFTIFEKKIEDYNFGTLLRTDASAEYGQFTTCFVVRLQFYAFEIARNKHGLNDWIVGQK
notes: Chp1 (ORF YPL225w), yeast; source: yeast cells, in lysate
In the case of B1, the “fold increase in Chp1 binding (against WT eEF1A)” value with V5-eEF1A F98C and with V5-eEF1A M102V was 3 fold throughout.
